Publication PMC6197280, “A distinct isoform of ZNF207 controls self-renewal and pluripotency of human embryonic stem cells”

Target: ZNF207 isoform C (human, UniProt O43670-4 1-494)
Test: EMSA; 100 ng protein, 3 ng probe, 1 ug poly(dI-dC), 10 mM MgCl2; 10 mM HEPES pH 7.5, 10 mM KCl, 10 mM MgCl2, 1 mM DTT, 1 mM EDTA, 10% glycerol, 1 ug poly(dI-dC) in 10 ul, 10 min at room temperature; 5% native PAGE in 0.5x TBE
Settings: protein: commercial; label: 5' biotin on sense strand; duplex of annealed sense and reverse strands

ZNF207 isoform C, sequence (O43670 other isoform, or with tags, fused parts or gaps): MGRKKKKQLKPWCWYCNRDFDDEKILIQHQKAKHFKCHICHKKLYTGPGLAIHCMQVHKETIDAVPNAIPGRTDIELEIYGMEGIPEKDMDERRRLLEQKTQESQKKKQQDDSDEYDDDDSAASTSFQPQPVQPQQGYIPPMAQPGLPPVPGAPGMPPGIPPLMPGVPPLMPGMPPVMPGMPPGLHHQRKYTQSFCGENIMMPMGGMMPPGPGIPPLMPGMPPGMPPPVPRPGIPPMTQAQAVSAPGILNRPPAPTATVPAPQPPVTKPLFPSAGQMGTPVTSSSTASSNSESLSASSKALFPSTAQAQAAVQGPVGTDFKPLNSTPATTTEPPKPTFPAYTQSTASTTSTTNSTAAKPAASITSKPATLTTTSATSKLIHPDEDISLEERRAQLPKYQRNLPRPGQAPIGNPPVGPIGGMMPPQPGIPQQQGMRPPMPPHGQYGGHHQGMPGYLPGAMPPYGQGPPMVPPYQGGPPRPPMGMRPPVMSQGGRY

B1: ZNF207 motif WT (dsDNA)
DNA 1: TTTGAAACACTCTTTTTGTAG
DNA 2: CTACAAAAAGAGTGTTTCAAA
binding result: binds

B2: ZNF207 motif MUT (dsDNA)
DNA 1: TTTTAAACACGCGTGTGTTAG
DNA 2: CTAACACACGCGTGTTTAAAA
binding result: no binding
